Laboratory results from the supplement of paper PMC10126150.
± gives the standard deviation of the averaged measurements.

test system: ATP; test: switch fluorescence ratio, 500 uM ATP over buffer (Cy3 cluster intensity, sum of 5 cycles each) (fold (ratio)); higher = stronger signal-on switching upon ATP binding; sequences stand for … in TCGTCGGCAGCGTCAGATGTGTATAAGAGACAGTTTTTTTTTTTTTTTTTTTTTTTTT…TC; details: aptamer strand: ATP DNA aptamer (quencher-CACCTGGGGGAGTATTGCGGAGGAAGG + anchor), 100 nM annealed; ATP concentration: 500 uM
Method in brief: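 Cy3-labelled switching-strand clusters on a modified Illumina MiSeq flow-cell were annealed to 100 nM quencher-labelled ATP aptamer and imaged first in selection buffer, then after 15 min with 500 uM ATP at 22 °C. NaOH stripping and re-annealing separated each of five buffer/ATP cycles, and clusters outside 100-1000 RFU were excluded. The fluorescence ratio sums target-cycle Cy3 intensity over buffer-cycle Cy3 intensity per cluster and averages it per switch-domain sequence.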
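Further: ATP exposure 15 min at 22 °C before imaging.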

Sequence	switch fluorescence ratio
ATATTCGTG	0.985 ± 0.013
ATATTCTACT	1.025 ± 3.1e-05
ATATTCTAGA	0.989 ± 0.029
ATATTCTGGG	0.969 ± 0.015
ATATTGGCAT	1.02 ± 0.026
ATATTGGCGC	1.01 ± 0.019
ATATTGGGTA	0.997 ± 0.022
ATATTGTGAC	1.032 ± 0.004
ATATTTGATA	1.01 ± 0.039
ATATTTGGGC	0.975 ± 0.034
ATATTTGTGG	0.9843 ± 0.0088
ATATTTTAGG	0.996 ± 0.031
ATATTTTGGC	1.04 ± 0.034
ATATTTTTTT	1 ± 0.03
ATCAAAACTT	1.03 ± 0.013
ATCAAAATAA	1.06 ± 0.059
ATCAAAATTG	1.01 ± 0.027
ATCAAAGCGC	1.03 ± 0.023
ATCAAGCAGT	1.41 ± 0.47
ATCAAGCCAA	1.005 ± 0.0018
ATCAAGGGGT	1.01 ± 0.019
ATCAAGTCTG	0.9898 ± 0.0028
ATCAATTGGT	1.013 ± 0.0052
ATCAATTTAA	0.976 ± 0.039
ATCAATTTCT	0.974 ± 0.014

Sequence	switch fluorescence ratio
ATCACGGGAA	1.055 ± 0.0074
ATCACGGTGC	1.1 ± 0.061
ATCAGAACAA	1.01 ± 0.0069
ATCAGAGGGG	1.03 ± 0.019
ATCAGATAGC	0.977 ± 0.018
ATCAGCAACG	1.01 ± 0.026
ATCAGGAAAT	1.01 ± 0.017
ATCAGGCGTA	0.975 ± 0.038
ATCAGGGAGT	1 ± 0.011
ATCAGTGAGA	1.03 ± 0.032
ATCAGTGGGG	0.991 ± 0.042
ATCAGTGGTC	0.936 ± 0.021
ATCAGTTTTC	0.985 ± 0.0013
ATCATAGCCG	1.07 ± 0.14
ATCATGCATT	0.989 ± 0.025
ATCATGGTTG	1.002 ± 0.0063
ATCATGTACA	0.996 ± 0.024
ATCATTAACT	1.02 ± 0.013
ATCATTCTTC	0.977 ± 0.034
ATCATTGAA	0.9864 ± 0.0087
ATCATTTAAT	1.009 ± 0.0054
ATCATTTTTT	0.9877 ± 0.0061
ATCCCTTGAG	0.992 ± 0.032
ATCCGAGGGG	1.03 ± 0.05
ATCCGCGCGT	1 ± 0.014

Sequence	switch fluorescence ratio
ATCCGCTAGT	2.16 ± 0.19
ATCCGGACCC	1.08 ± 0.1
ATCCGGGGAA	1.02 ± 0.0032
ATCCGGTTAC	5.17 ± 0.68
ATCCGGTTAT	1.03 ± 0.016
ATCCGTGATA	1.77 ± 0.021
ATCCTAAATT	1.02 ± 0.0024
ATCCTAATGG	0.983 ± 0.012
ATCCTAGTTT	1.016 ± 0.00087
ATCCTATTT	1.01 ± 0.028
ATCCTATTTG	1.0056 ± 0.0008
ATCCTCGGCC	1.52 ± 0.039
ATCCTCGTAA	2.44 ± 0.32
ATCCTCTGCC	3.16 ± 0.72
ATCCTGCTTT	1.01 ± 0.069
ATCGAAACCC	1.05 ± 0.046
ATCGACATAG	0.9985 ± 0.006
ATCGACGGG	1.008 ± 0.0058
ATCGAGAGGG	1.01 ± 0.04
ATCGAGGCAC	1.056 ± 0.0061
ATCGATACTT	1.067 ± 0.0098
ATCGATAGTG	1 ± 0.03
ATCGATTTTT	1 ± 0.032
ATCGCGGATT	0.994 ± 0.023
ATCGCGGGCC	1.03 ± 0.036

Sequence	switch fluorescence ratio
ATCGGAACCT	2.15 ± 0.1
ATCGGACGCT	1.06 ± 0.023
ATCGGAGGTG	1.02 ± 0.062
ATCGGCAGTT	1 ± 0.015
ATCGGCATGC	1.19 ± 0.019
ATCGGGAGAC	1.27 ± 0.21
ATCGGGATAG	1.04 ± 0.044
ATCGGGGCAC	1.1 ± 0.11
ATCGGGGCGG	0.993 ± 0.031
ATCGGGTTAG	0.998 ± 0.016
ATCGGTAATT	0.997 ± 0.029
ATCGGTCATG	0.993 ± 0.013
ATCGGTGAGG	0.971 ± 0.03
ATCGGTGTGC	0.981 ± 0.069
ATCGTAGGTC	0.982 ± 0.052
ATCGTAGGTG	1.04 ± 0.12
ATCGTATACC	1.01 ± 0.022
ATCGTCATAT	1 ± 0.036
ATCGTGAGGG	1 ± 0.053
ATCGTGTGTC	0.987 ± 0.071
ATCTAGGGTC	1.01 ± 0.031
ATCTAGGTAT	1 ± 0.029
ATCTAGTACC	0.999 ± 0.046
ATCTATGATA	0.954 ± 0.011
ATCTATTATT	1.012 ± 0.006

Sequence	switch fluorescence ratio
ATCTCGCAGG	1.08 ± 0.031
ATCTCGTTA	1.04 ± 0.053
ATCTGAGTTA	1.03 ± 0.058
ATCTGATCGA	0.96 ± 0.037
ATCTGATTGA	0.97124 ± 0.00072
ATCTGGAGTT	1.01 ± 0.018
ATCTGGCGTC	0.998 ± 0.033
ATCTGGTATG	0.957 ± 0.037
ATCTGGTGCT	1.052 ± 0.0059
ATCTGTCCAG	1 ± 0.071
ATCTGTGAGG	1.019 ± 0.0063
ATCTTATCGT	0.982 ± 0.027
ATCTTCTAGT	0.953 ± 0.041
ATCTTGGACG	1.05 ± 0.027
ATCTTTACCT	1.26 ± 0.036
ATCTTTAGTA	1 ± 0.014
ATCTTTGGTA	0.9826 ± 0.0074
ATCTTTTTGT	1.014 ± 0.005
ATGAAAATAC	1.01 ± 0.03
ATGAAAATTT	1.05 ± 0.017
ATGAAAGGGA	1.02 ± 0.042
ATGAAAGTGC	1.02 ± 0.017
ATGAAATTTT	1.0061 ± 0.00088
ATGAAGCAGG	1.15 ± 0.058
ATGAAGGGGG	1.03 ± 0.042

Sequence	switch fluorescence ratio
ATGAAGGGGT	0.959 ± 0.033
ATGAATAATG	1.01 ± 0.026
ATGAATTTGC	0.979 ± 0.044
ATGAATTTGT	1.01 ± 0.032
ATGACAGGAT	1 ± 0.023
ATGACCGGGG	1.02 ± 0.023
ATGACGTATT	1.02 ± 0.052
ATGACTTCGG	0.99 ± 0.028
ATGAGAATTA	1.006 ± 0.0023
ATGAGAATTT	1.01 ± 0.049
ATGAGAGGTT	0.994 ± 0.049
ATGAGCCAGT	1.003 ± 0.004
ATGAGCGGCG	0.9917 ± 0.0012
ATGAGCTATT	1.03 ± 0.027
ATGAGGAAGT	0.987 ± 0.023
ATGAGGAATG	1.008 ± 0.0043
ATGAGGAGGG	1.02 ± 0.023
ATGAGGCATT	1.04 ± 0.016
ATGAGGCCGG	1.12 ± 0.066
ATGAGGGCTT	0.981 ± 0.055
ATGAGGGGAG	0.997 ± 0.013
ATGAGGGGGG	0.986 ± 0.031
ATGAGGGT	1.01 ± 0.015
ATGAGGTTGG	0.973 ± 0.055
ATGAGTAAGG	0.991 ± 0.013

Sequence	switch fluorescence ratio
ATGAGTAGGA	1.017 ± 0.0061
ATGAGTATGT	0.9961 ± 0.0014
ATGAGTCATT	0.987 ± 0.026
ATGAGTGCTT	0.9776 ± 0.0075
ATGATAATGT	0.985 ± 0.014
ATGATAGAGG	0.991 ± 0.025
ATGATATCTC	1.02 ± 0.047
ATGATCGGAT	0.977 ± 0.051
ATGATGAATA	0.949 ± 0.017
ATGATGCGTG	0.981 ± 0.015
ATGATGGGGG	0.984 ± 0.027
ATGATGTGGT	0.992 ± 0.022
ATGATTAATT	1.03 ± 0.017
ATGATTCGTG	0.972 ± 0.028
ATGATTGATG	1.02 ± 0.019
ATGATTGCGT	0.991 ± 0.018
ATGATTGGCA	0.99 ± 0.026
ATGATTTACT	1.02 ± 0.02
ATGATTTCGT	0.9793 ± 0.0085
ATGATTTGGG	1.01 ± 0.011
ATGCAAGGGC	1.08 ± 0.024
ATGCAAGGTT	1.01 ± 0.018
ATGCAATCAT	1.038 ± 0.0026
ATGCAATGTC	1.38 ± 0.22
ATGCACGAAG	1 ± 0.057

Sequence	switch fluorescence ratio
ATGCACGGGC	1.01 ± 0.047
ATGCACTGCT	1.04 ± 0.021
ATGCAGGTCC	1.03 ± 0.037
ATGCAGTATT	1.03 ± 0.025
ATGCATTAAG	0.992 ± 0.051
ATGCCATGTG	1 ± 0.022
ATGCCATTAA	0.9718 ± 0.0018
ATGCCCAGCT	1.0068 ± 0.00025
ATGCGAGCGG	0.985 ± 0.014
ATGCGATTTG	1 ± 0.057
ATGCGCACCG	1.05 ± 0.023
ATGCGCAGAT	1.046 ± 0.0063
ATGCGCTAAT	1.07 ± 0.013
ATGCGCTCTA	0.992 ± 0.018
ATGCGGTTTT	0.986 ± 0.03
ATGCTAGTTG	0.98924 ± 0.0007
ATGCTGAGGA	0.977 ± 0.042
ATGCTGGTAT	0.981 ± 0.024
ATGCTGGTTA	0.996 ± 0.016
ATGCTTAGTT	1.03 ± 0.051
ATGCTTATGG	0.994 ± 0.037
ATGCTTATTG	0.973 ± 0.015
ATGCTTGAAC	1.037 ± 0.0095
ATGCTTTCAG	0.983 ± 0.012
ATGGAAAATG	1.04 ± 0.037
